Laboratory results from the supplement of paper PMC10065799, “High-throughput profiling of sequence recognition by tyrosine kinases and SH2 domains using bacterial peptide display” (eLife, 2023).

molecular target: FGFR3 (UniProt P22607); assay: phosphorylation enrichment, bacterial display (enrichment ratio); higher = better substrate or ligand; peptides without Tyr show the background
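Further: 11-residue human phosphosite peptides and single-mutation variants displayed on the E. coli surface, counted by deep sequencing, each peptide's frequency after selection divided by its frequency in the unselected input library; frequency after pTyr selection over input frequency; kinase dosed for 20-30% of maximal phosphorylation in three min.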

Chain of FGFR3 (P22607 whole entry, looked up): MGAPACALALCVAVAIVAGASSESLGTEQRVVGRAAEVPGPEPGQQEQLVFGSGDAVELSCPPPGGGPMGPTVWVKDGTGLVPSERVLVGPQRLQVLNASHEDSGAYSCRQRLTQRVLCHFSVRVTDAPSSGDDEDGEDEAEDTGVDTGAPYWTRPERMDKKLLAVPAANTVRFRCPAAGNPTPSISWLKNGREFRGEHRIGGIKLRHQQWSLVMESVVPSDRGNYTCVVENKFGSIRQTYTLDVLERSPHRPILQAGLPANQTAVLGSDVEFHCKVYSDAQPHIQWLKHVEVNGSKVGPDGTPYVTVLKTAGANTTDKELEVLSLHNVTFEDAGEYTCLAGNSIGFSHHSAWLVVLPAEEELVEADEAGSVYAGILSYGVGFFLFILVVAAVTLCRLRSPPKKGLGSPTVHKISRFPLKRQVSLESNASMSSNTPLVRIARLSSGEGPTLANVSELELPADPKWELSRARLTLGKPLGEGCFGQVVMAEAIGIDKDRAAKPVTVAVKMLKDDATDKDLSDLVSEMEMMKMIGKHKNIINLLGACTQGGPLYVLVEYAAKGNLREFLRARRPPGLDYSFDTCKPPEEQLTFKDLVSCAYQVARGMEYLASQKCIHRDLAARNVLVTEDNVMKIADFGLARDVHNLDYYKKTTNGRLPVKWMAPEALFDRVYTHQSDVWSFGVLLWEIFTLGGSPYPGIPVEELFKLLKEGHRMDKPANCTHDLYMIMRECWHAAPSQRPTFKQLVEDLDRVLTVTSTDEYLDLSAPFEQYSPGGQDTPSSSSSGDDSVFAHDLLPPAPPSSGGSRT

Point of comparison: IKNSGYISRFL [EIF2AK3_Y585_YF], phosphorylation enrichment 0.495. Against it:
- HHIDYYKETTN [FGFR1_Y654_K656E] — higher, 0.935
- FTDPFYDFEIE [ZC3H18_Y372_A368T_YF] — higher, 0.783
- HSPLRYTSILT [OR51B6_Y130_R125H] — higher, 0.849
- IKKLIYVHLVI [JAGN1_Y42] — higher, 0.842
- FFCKFYNKSED [RYR1_Y4864_R4861C] — higher, 0.939
- RLNCIYYKDQT [RS1_Y165_W163C] — higher, 0.751
- ASNFNYFFHRE [KCNA1_Y413_V408A_YF] — higher, 0.748
- RGRSTYYWPRP [GAGE12J_Y9] — higher, 0.869
- EEGNPYYSSAR [MCCC2_Y520] — higher, 0.647
- DIPIRYSIMGV [CDH4_Y205_T208M] — higher, 0.695
- RQQEDYLLFKQ [RARRES1_Y159_YF] — higher, 1.28
- LKGQVDILGRE [ASS1_Y359_Y359D] — higher, 0.638
- QDRTFYERVRT [SPEN_Y633_S635R_YF] — lower, 0.441
- KKYPDYIQSAM [SGMS2_Y59_I62S] — lower, 0.487
- TTASRYLKVSD [MYOM2_Y871_N869S] — lower, 0.467
- SYPHEYGSQEG [RBM10_Y48_R46H] — higher, 0.559
- FAELVYTGFWH [ASS1_Y322] — higher, 1.85
- RALLNYIASKF [GSTA3_Y74_I71L_YF] — higher, 0.767
- IHHIDYYKKTT [FGFR1_Y653] — lower, 0.484
- MARDIYQASYY [LTK_Y672_R673Q] — higher, 1.19
- KFWREYILSLE [GPC3_Y299_YF] — higher, 0.72
- KGELCYMHSRV [ABCD1_Y281_R280C] — higher, 0.682
- SFMVRYNQPRV [GRIN2D_Y736_YF] — higher, 0.57
- EMTAEYTCTRK [ACAD9_Y325_A326T] — higher, 0.636
- IFHLSYIHNCE [PDE6B_Y227_L228I_YF] — higher, 0.91
- PGAGHYEDTIL [ALK_Y1604] — higher, 0.881
- LLKAGYHGVLR [TTPA_Y100] — higher, 0.679
- KPRKLYTIKKP [BRD2_Y715_P714L] — lower, 0.427
- GHNDVYISKHV [GRIN2A_Y1423_E1426K] — lower, 0.364
- VASIFYTLVIP [OR8K3_Y277] — higher, 1.63
- SHNELYYEAAE [VANGL1_Y344_E347A] — higher, 2.54
- DVRQEYPGMIL [PLXND1_Y616] — higher, 0.588

tested on: Fer (mouse); assay: as above

Point of comparison: IKKLIYVHLVI [JAGN1_Y42], phosphorylation enrichment 0.592. Against it:
- HHIDYYKETTN [FGFR1_Y654_K656E] — higher, 0.893
- FTDPFYDFEIE [ZC3H18_Y372_A368T_YF] — higher, 1.03
- HSPLRYTSILT [OR51B6_Y130_R125H] — higher, 0.892
- IKNSGYISRFL [EIF2AK3_Y585_YF] — lower, 0.286
- FFCKFYNKSED [RYR1_Y4864_R4861C] — higher, 0.598
- RLNCIYYKDQT [RS1_Y165_W163C] — lower, 0.497
- ASNFNYFFHRE [KCNA1_Y413_V408A_YF] — lower, 0.415
- RGRSTYYWPRP [GAGE12J_Y9] — higher, 0.607
- EEGNPYYSSAR [MCCC2_Y520] — lower, 0.528
- DIPIRYSIMGV [CDH4_Y205_T208M] — lower, 0.421
- RQQEDYLLFKQ [RARRES1_Y159_YF] — higher, 0.637
- LKGQVDILGRE [ASS1_Y359_Y359D] — higher, 0.598
- QDRTFYERVRT [SPEN_Y633_S635R_YF] — higher, 3.63
- KKYPDYIQSAM [SGMS2_Y59_I62S] — lower, 0.373
- TTASRYLKVSD [MYOM2_Y871_N869S] — lower, 0.377
- SYPHEYGSQEG [RBM10_Y48_R46H] — lower, 0.411
- FAELVYTGFWH [ASS1_Y322] — higher, 6.97
- RALLNYIASKF [GSTA3_Y74_I71L_YF] — lower, 0.553
- IHHIDYYKKTT [FGFR1_Y653] — higher, 0.961
- MARDIYQASYY [LTK_Y672_R673Q] — higher, 1.97
- KFWREYILSLE [GPC3_Y299_YF] — lower, 0.422
- KGELCYMHSRV [ABCD1_Y281_R280C] — lower, 0.449
- SFMVRYNQPRV [GRIN2D_Y736_YF] — lower, 0.423
- EMTAEYTCTRK [ACAD9_Y325_A326T] — lower, 0.513
- IFHLSYIHNCE [PDE6B_Y227_L228I_YF] — lower, 0.526
- PGAGHYEDTIL [ALK_Y1604] — higher, 6.12
- LLKAGYHGVLR [TTPA_Y100] — higher, 0.671
- KPRKLYTIKKP [BRD2_Y715_P714L] — lower, 0.413
- GHNDVYISKHV [GRIN2A_Y1423_E1426K] — lower, 0.313
- VASIFYTLVIP [OR8K3_Y277] — higher, 2.79
- SHNELYYEAAE [VANGL1_Y344_E347A] — higher, 3.52
- DVRQEYPGMIL [PLXND1_Y616] — lower, 0.394

molecular target: Fes (UniProt P07332); assay: as above
Sequence (P07332 whole entry, looked up): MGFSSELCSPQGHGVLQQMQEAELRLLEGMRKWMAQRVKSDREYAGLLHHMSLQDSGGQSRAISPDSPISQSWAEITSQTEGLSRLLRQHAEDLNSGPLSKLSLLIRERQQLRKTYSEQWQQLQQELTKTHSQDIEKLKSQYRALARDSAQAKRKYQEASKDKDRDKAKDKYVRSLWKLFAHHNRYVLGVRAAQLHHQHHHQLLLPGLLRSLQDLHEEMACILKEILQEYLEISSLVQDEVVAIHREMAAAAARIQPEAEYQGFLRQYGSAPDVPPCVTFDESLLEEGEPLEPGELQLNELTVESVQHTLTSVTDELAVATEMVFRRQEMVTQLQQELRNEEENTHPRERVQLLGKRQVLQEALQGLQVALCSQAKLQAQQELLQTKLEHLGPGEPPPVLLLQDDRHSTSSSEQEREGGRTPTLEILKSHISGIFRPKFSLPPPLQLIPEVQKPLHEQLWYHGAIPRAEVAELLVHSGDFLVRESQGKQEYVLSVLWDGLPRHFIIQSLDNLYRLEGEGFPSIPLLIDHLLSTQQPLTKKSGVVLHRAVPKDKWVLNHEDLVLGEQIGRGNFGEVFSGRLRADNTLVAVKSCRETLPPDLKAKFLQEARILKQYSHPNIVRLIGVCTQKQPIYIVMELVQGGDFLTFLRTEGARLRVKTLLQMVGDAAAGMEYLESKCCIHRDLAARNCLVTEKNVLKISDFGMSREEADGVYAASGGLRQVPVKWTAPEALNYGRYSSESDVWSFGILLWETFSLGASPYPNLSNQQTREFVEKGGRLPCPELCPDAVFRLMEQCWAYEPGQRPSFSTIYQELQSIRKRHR

Point of comparison: IHHIDYYKKTT [FGFR1_Y653], phosphorylation enrichment 0.741. Against it:
- HHIDYYKETTN [FGFR1_Y654_K656E] — higher, 1.39
- FTDPFYDFEIE [ZC3H18_Y372_A368T_YF] — higher, 1.54
- HSPLRYTSILT [OR51B6_Y130_R125H] — higher, 1.4
- IKNSGYISRFL [EIF2AK3_Y585_YF] — lower, 0.669
- IKKLIYVHLVI [JAGN1_Y42] — higher, 1.32
- FFCKFYNKSED [RYR1_Y4864_R4861C] — higher, 1.74
- RLNCIYYKDQT [RS1_Y165_W163C] — higher, 1.16
- ASNFNYFFHRE [KCNA1_Y413_V408A_YF] — higher, 1.01
- RGRSTYYWPRP [GAGE12J_Y9] — lower, 0.546
- EEGNPYYSSAR [MCCC2_Y520] — higher, 0.845
- DIPIRYSIMGV [CDH4_Y205_T208M] — higher, 1.14
- RQQEDYLLFKQ [RARRES1_Y159_YF] — higher, 1.85
- LKGQVDILGRE [ASS1_Y359_Y359D] — higher, 1.07
- QDRTFYERVRT [SPEN_Y633_S635R_YF] — lower, 0.591
- KKYPDYIQSAM [SGMS2_Y59_I62S] — higher, 0.772
- TTASRYLKVSD [MYOM2_Y871_N869S] — lower, 0.636
- SYPHEYGSQEG [RBM10_Y48_R46H] — higher, 0.87
- FAELVYTGFWH [ASS1_Y322] — higher, 1.41
- RALLNYIASKF [GSTA3_Y74_I71L_YF] — higher, 0.956
- MARDIYQASYY [LTK_Y672_R673Q] — higher, 0.879
- KFWREYILSLE [GPC3_Y299_YF] — higher, 1.2
- KGELCYMHSRV [ABCD1_Y281_R280C] — higher, 0.757
- SFMVRYNQPRV [GRIN2D_Y736_YF] — higher, 0.954
- EMTAEYTCTRK [ACAD9_Y325_A326T] — higher, 0.974
- IFHLSYIHNCE [PDE6B_Y227_L228I_YF] — higher, 1.35
- PGAGHYEDTIL [ALK_Y1604] — higher, 1.16
- LLKAGYHGVLR [TTPA_Y100] — higher, 1.35
- KPRKLYTIKKP [BRD2_Y715_P714L] — lower, 0.496
- GHNDVYISKHV [GRIN2A_Y1423_E1426K] — lower, 0.536
- VASIFYTLVIP [OR8K3_Y277] — higher, 1.49
- SHNELYYEAAE [VANGL1_Y344_E347A] — higher, 1.12
- DVRQEYPGMIL [PLXND1_Y616] — higher, 0.949

molecular target: Fyn (UniProt P06241); assay: as above
Sequence (P06241 whole entry, looked up): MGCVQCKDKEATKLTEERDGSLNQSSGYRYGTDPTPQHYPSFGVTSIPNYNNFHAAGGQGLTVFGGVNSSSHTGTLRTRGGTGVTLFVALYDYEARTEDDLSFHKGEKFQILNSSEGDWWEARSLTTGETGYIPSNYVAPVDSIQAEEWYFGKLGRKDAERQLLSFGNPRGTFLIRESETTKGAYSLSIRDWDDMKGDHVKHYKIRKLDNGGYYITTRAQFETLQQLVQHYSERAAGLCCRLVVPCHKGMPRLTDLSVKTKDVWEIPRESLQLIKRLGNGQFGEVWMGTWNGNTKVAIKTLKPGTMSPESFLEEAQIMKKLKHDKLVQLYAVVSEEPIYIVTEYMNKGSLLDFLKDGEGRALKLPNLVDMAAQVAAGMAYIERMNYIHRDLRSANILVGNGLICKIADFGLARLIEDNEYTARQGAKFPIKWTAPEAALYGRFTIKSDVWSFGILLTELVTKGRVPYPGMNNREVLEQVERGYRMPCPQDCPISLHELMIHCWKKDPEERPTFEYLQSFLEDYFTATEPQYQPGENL

Point of comparison: IHHIDYYKKTT [FGFR1_Y653], phosphorylation enrichment 0.381. Against it:
- HHIDYYKETTN [FGFR1_Y654_K656E] — higher, 0.646
- FTDPFYDFEIE [ZC3H18_Y372_A368T_YF] — higher, 4.1
- HSPLRYTSILT [OR51B6_Y130_R125H] — higher, 0.823
- IKNSGYISRFL [EIF2AK3_Y585_YF] — lower, 0.348
- IKKLIYVHLVI [JAGN1_Y42] — higher, 0.496
- FFCKFYNKSED [RYR1_Y4864_R4861C] — higher, 0.426
- RLNCIYYKDQT [RS1_Y165_W163C] — higher, 0.878
- ASNFNYFFHRE [KCNA1_Y413_V408A_YF] — lower, 0.372
- RGRSTYYWPRP [GAGE12J_Y9] — higher, 0.68
- EEGNPYYSSAR [MCCC2_Y520] — higher, 0.793
- DIPIRYSIMGV [CDH4_Y205_T208M] — higher, 0.455
- RQQEDYLLFKQ [RARRES1_Y159_YF] — higher, 0.68
- LKGQVDILGRE [ASS1_Y359_Y359D] — higher, 0.559
- QDRTFYERVRT [SPEN_Y633_S635R_YF] — higher, 0.403
- KKYPDYIQSAM [SGMS2_Y59_I62S] — higher, 0.443
- TTASRYLKVSD [MYOM2_Y871_N869S] — lower, 0.373
- SYPHEYGSQEG [RBM10_Y48_R46H] — higher, 0.402
- FAELVYTGFWH [ASS1_Y322] — higher, 8.14
- RALLNYIASKF [GSTA3_Y74_I71L_YF] — higher, 0.385
- MARDIYQASYY [LTK_Y672_R673Q] — higher, 5.45
- KFWREYILSLE [GPC3_Y299_YF] — higher, 0.462
- KGELCYMHSRV [ABCD1_Y281_R280C] — higher, 0.505
- SFMVRYNQPRV [GRIN2D_Y736_YF] — higher, 0.446
- EMTAEYTCTRK [ACAD9_Y325_A326T] — higher, 0.624
- IFHLSYIHNCE [PDE6B_Y227_L228I_YF] — higher, 0.494
- PGAGHYEDTIL [ALK_Y1604] — higher, 0.809
- LLKAGYHGVLR [TTPA_Y100] — higher, 0.693
- KPRKLYTIKKP [BRD2_Y715_P714L] — lower, 0.375
- GHNDVYISKHV [GRIN2A_Y1423_E1426K] — higher, 0.423
- VASIFYTLVIP [OR8K3_Y277] — higher, 0.502
- SHNELYYEAAE [VANGL1_Y344_E347A] — higher, 0.986
- DVRQEYPGMIL [PLXND1_Y616] — higher, 0.41
